Tests used:
[1] = target: HLA-DR7 (human); assay: competition ELISA, tracer YKL
[2] = target: HLA-DR11 (human); assay: competition ELISA, tracer HA 306-318
[3] = target: HLA-DR1 (human); assay: competition ELISA, tracer HA 306-318
[4] = target: HLA-DR15 (human); assay: competition ELISA, tracer A3 152-166
[5] = target: T1, HLA-DP4 (DPB1*0401) (human), P20036; assay: competition ELISA, tracer Oxy 271-287
T1 chain 1: not shown
T1 chain 2: not shown

[6] = target: T2, HLA-DP4 (DPB1*0402) (human), P20036; assay: competition ELISA, tracer Oxy 271-287
T2 chain 1: not shown
T2 chain 2: not shown

[7] = target: HLA-DRB5 (human); assay: competition ELISA, tracer not stated
[8] = target: HLA-DR4 (human); assay: competition ELISA, tracer HA 306-318

Binder	IC50 [1]	IC50 [2]	IC50 [3]	IC50 [4]	IC50 [5]	IC50 [6]	IC50 [7]	IC50 [8]
ALWNLHGQALFLGIVL (modifications not checked) [A16L]	122 nM	11000 nM	79 nM	48 nM	1180 nM	725 nM	2680 nM	–
ASSYAAAQRKLLTPV (modifications not checked) [A15V]	1730 nM	4 nM	1200 nM	26500 nM	–	–	463 nM	35500 nM
DPHLPTLLLGTSGSGGDDDDPHGPVQLSYYD (modifications not checked) [D31D]	27500 nM	25000 nM	17300 nM	251 nM	–	28300 nM	–	–

Reference: US20090130134A1, “T CD4+ Epitopes of Type I and II Latency Antigens of the Epstein-Barr Virus, Which Can Be Recognized by the majority of individuals in the caucasian populations and applications thereof” (priority 2005, published 2009)
